Assay results reported in the supplement of paper PMC9876800.

Test system: peptide library, one residue held at a place counted from the S/T acceptor
Test: relative phosphorylation of the sub-library (ratio to the mean residue at this position); human; higher = residue favoured
Summary of the method: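 Relative sub-library phosphorylation is the ratio of each sub-library's signal to the mean residue at that position. The signal came from phosphorimaging of spots on streptavidin membranes, quantified by densitometry, after purified recombinant kinases reacted with biotinylated degenerate peptide sub-libraries in 384-well plates. Reactions held 50 μM peptide and 50 μM ATP spiked with γ-32P-ATP for 90 min under kinase-specific conditions.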

Chain of MASTL, construct: Full length (Q96GX5 whole entry, looked up): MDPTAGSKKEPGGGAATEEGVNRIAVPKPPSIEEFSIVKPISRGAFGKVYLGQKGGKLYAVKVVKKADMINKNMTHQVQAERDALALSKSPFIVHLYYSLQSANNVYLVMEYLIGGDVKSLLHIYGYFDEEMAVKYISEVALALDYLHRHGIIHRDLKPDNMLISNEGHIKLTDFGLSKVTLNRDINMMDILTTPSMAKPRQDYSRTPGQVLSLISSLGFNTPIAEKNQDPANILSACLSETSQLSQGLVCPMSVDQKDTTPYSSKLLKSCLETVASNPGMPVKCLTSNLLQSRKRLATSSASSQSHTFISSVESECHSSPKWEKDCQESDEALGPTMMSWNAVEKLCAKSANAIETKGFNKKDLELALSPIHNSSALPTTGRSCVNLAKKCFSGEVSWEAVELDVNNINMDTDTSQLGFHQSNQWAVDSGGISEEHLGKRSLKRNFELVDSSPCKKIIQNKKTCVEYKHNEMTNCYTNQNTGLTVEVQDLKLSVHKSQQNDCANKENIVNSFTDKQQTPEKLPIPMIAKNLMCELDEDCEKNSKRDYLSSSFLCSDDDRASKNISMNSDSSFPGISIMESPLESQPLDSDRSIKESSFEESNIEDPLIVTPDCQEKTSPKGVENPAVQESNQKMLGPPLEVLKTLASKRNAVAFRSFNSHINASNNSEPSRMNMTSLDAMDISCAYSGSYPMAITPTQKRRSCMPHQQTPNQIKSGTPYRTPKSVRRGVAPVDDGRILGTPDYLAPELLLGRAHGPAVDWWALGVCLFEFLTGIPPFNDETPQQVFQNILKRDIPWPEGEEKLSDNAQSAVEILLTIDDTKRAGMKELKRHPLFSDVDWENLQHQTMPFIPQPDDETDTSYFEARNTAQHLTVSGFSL
Chain of MELK, construct: aa1-340 (Q14680 1-340, looked up): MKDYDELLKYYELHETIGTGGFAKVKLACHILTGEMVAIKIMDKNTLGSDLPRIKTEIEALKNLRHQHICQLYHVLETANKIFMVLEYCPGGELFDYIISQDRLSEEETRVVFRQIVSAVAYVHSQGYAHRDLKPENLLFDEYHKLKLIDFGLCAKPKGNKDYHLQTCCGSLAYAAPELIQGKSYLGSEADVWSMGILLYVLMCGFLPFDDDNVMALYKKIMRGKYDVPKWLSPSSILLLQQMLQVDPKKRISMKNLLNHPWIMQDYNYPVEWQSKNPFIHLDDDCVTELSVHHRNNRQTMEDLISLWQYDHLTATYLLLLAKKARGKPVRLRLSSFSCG

MASTL, construct: Full length (from UniProt Q96GX5)
relative phosphorylation
Details | at +1 | at +2 | at +3 | at +4 | at -1 | at -2 | at -3 | at -4 | at -5
A fixed | 0.775 | 1.04 | 0.823 | 1.03 | 0.921 | 0.862 | 0.89 | 1.04 | 1.22
D fixed | 0.64 | 0.706 | 0.711 | 0.972 | 0.826 | 0.719 | 0.63 | 0.69 | 0.66
E fixed | 0.62 | 0.693 | 0.766 | 0.951 | 0.769 | 0.611 | 0.679 | 0.717 | 0.639
F fixed | 1.95 | 1.38 | 1.3 | 0.962 | 0.948 | 1.74 | 1.13 | 1.02 | 1
G fixed | 1.59 | 0.711 | 1.14 | 0.867 | 1.46 | 1.13 | 1.02 | 1.2 | 1.28
H fixed | 0.772 | 0.99 | 0.949 | 1.07 | 1.01 | 1.51 | 1.43 | 1.31 | 1.47
I fixed | 1.21 | 1.23 | 1.19 | 0.878 | 0.543 | 0.585 | 0.66 | 0.696 | 0.841
K fixed | 0.534 | 0.531 | 0.573 | 0.841 | 0.87 | 0.579 | 0.927 | 0.956 | 0.889
L fixed | 1.06 | 0.959 | 1.1 | 0.941 | 1.06 | 0.579 | 0.715 | 0.656 | 0.941
M fixed | 1.71 | 1.15 | 1.15 | 1.02 | 1.25 | 0.846 | 1 | 0.938 | 0.94
N fixed | 0.789 | 0.95 | 0.749 | 1.05 | 1.06 | 1.16 | 1.03 | 1.34 | 1.05
P fixed | 0.664 | 0.65 | 0.704 | 1.31 | 1.59 | 0.804 | 1.01 | 0.965 | 1.07
Q fixed | 1.09 | 0.761 | 0.804 | 1.09 | 1.15 | 0.839 | 0.985 | 0.913 | 0.841
R fixed | 0.614 | 0.579 | 0.555 | 0.726 | 0.889 | 0.767 | 1.55 | 1 | 0.953
V fixed | 0.944 | 1.16 | 0.875 | 0.831 | 0.649 | 0.558 | 0.678 | 0.703 | 0.909
W fixed | 1.03 | 1.6 | 2.11 | 1.28 | 0.913 | 1.82 | 1.23 | 1.35 | 1.27
Y fixed | 1.01 | 1.9 | 1.5 | 1.18 | 1.1 | 1.9 | 1.42 | 1.49 | 1.03
pThr fixed | 1 | 0.912 | 0.984 | 1.27 | 0.833 | 0.827 | 0.939 | 0.844 | 0.94
pTyr fixed | 0.8 | 1.07 | 0.973 | 0.944 | 0.711 | 0.771 | 0.812 | 0.834 | 0.784

MELK, construct: aa1-340 (from UniProt Q14680)
relative phosphorylation
Details | at +1 | at +2 | at +3 | at +4 | at -1 | at -2 | at -3 | at -4 | at -5
A fixed | 1.02 | 0.961 | 0.744 | 0.748 | 0.777 | 1.24 | 0.757 | 1.12 | 0.927
D fixed | 0.349 | 0.324 | 0.902 | 0.634 | 0.495 | 0.251 | 0.225 | 0.47 | 0.446
E fixed | 0.447 | 0.274 | 0.436 | 0.558 | 0.469 | 0.305 | 0.256 | 0.658 | 0.392
F fixed | 2.31 | 0.923 | 1.21 | 0.987 | 0.78 | 1.07 | 0.478 | 0.674 | 1.18
G fixed | 0.949 | 0.79 | 0.855 | 1.02 | 0.711 | 0.78 | 0.707 | 1.24 | 0.884
H fixed | 0.994 | 1.02 | 1.47 | 1.04 | 1.25 | 1.33 | 1.18 | 1.11 | 0.871
I fixed | 0.511 | 1.64 | 0.77 | 1.26 | 0.783 | 0.667 | 0.347 | 0.669 | 1.13
K fixed | 1.38 | 0.858 | 0.938 | 1.03 | 1.89 | 1.63 | 2.74 | 2.08 | 1.49
L fixed | 0.752 | 1.79 | 1.02 | 1.84 | 1.07 | 0.681 | 0.454 | 0.761 | 1.76
M fixed | 1.14 | 1.68 | 0.986 | 1.1 | 1.1 | 0.951 | 0.484 | 0.903 | 1.22
N fixed | 0.837 | 0.873 | 1.48 | 0.988 | 1.19 | 1.09 | 0.742 | 1.02 | 0.711
P fixed | 0.171 | 0.598 | 0.553 | 1.23 | 1.07 | 0.419 | 0.751 | 1.01 | 1.03
Q fixed | 1.54 | 0.723 | 1.05 | 0.952 | 1.12 | 1.42 | 0.784 | 0.844 | 0.902
R fixed | 1.72 | 1.28 | 1.12 | 1.03 | 1.71 | 1.79 | 5.37 | 1.81 | 1.67
V fixed | 0.705 | 1.54 | 0.79 | 1.05 | 0.885 | 0.893 | 0.394 | 0.701 | 0.814
W fixed | 0.959 | 0.808 | 1.69 | 0.848 | 0.601 | 1.15 | 0.676 | 1.1 | 0.766
Y fixed | 1.22 | 0.935 | 1 | 0.673 | 1.09 | 1.33 | 0.653 | 0.831 | 0.806
pThr fixed | 0.647 | 0.364 | 0.33 | 0.662 | 0.311 | 0.354 | 0.33 | 0.438 | 0.508
pTyr fixed | 0.551 | 0.407 | 0.409 | 0.425 | 0.709 | 0.295 | 0.332 | 0.382 | 0.517
